From patent publication US20080207488A1, “Method for Detecting Peptides Comprising a Cross-B Structure” (priority 2005, published 2008)
“Also recorded” adds a separate entry of the source.

What was measured:
[1] = Congo red fluorescence; format: physicochemical; settings: marketed biopharmaceutical within expiry limits, five μL tested
Protocol: Background signals from buffer, buffer with Congo red and protein/peptide solution without Congo red were subtracted from corresponding measurements with protein solution incubated with Congo red. Fluorescence was measured in triplicate on a Hitachi F-4500 fluorescence spectrophotometer (Ltd., Tokyo, Japan).
Formulated protein therapeutics were obtained from the local hospital pharmacy and were used as supplied by the manufacturers. […] Lyophilized therapeutics were dissolved according to the manufacturers recommendations. […] Other protein therapeutics were only kept at 4° C., and assayed for the presence of cross-β structure conformation at shown time points. Enhancement in fluorescence of ThT and Congo red was measured with all formulated protein therapeutics. For this purpose, proteins were diluted to the indicated concentrations. […] Zinc-insulin was diluted tenfold in the activation assay, GH was diluted to a final concentration of 500 μg ml^−1. Activation of factor XII and prekallikrein by the therapeutics was tested in the chromogenic factor XII assay (see above). […] After coating, plates were blocked with Blocking Reagent (Roche Diagnostics, Almere, The Netherlands).
Protein therapeutics were obtained from the local hospital pharmacy and analyzed within the expiry limits as stated by the manufacturers.

[2] = Stability testing of biopharmaceuticals under denaturing conditions (ThT fluorescence, tPA activation); format: physicochemical; settings: ThT at 25 μg/mL, tPA activation at 100 μg/mL
Protocol: To mimic accelerated stability testing several therapeutics were exposed to denaturing conditions and assayed for amyloid-like properties before and after treatment by tPA activation assay at 100 μg/mL protein and ThT fluorescence enhancement assay at 25 μg/mL protein. For this purpose, 5 mg/mL Glucagon (Glucagen; Novo Nordisk Farma B.V., Alphen aan de Rijn, The Netherlands) was incubated at 37° C. in 0.01 M HCl for 48 hours. One mg/mL Etanercept (Enbrel; Wyeth Pharmaceuticals B.V., Hoofddorp, The Netherlands) in 67 mM sodium phosphate buffer, 100 mM NaCl pH 7.0 was gradually heated from 30° C. to 85° C. over a period of 12 minutes and afterwards cooled to 4° C. for 5 minutes, this treatment was repeated 4 times. Abciximab (Reopro; Centocor B.V., Leiden, The Netherlands) and Infliximab (Remicade; Schering-Plough B.V., Utrecht, The Netherlands) were incubated at 65° C. for 16 and 72 hours, respectively.

[3] = system: human tissue-type plasminogen activator finger EGF (tPA F-EGF) fragment; experiment: ELISA, binding of tPA F-EGF to coated (mis)folded proteins; settings: coated protein, FIG. 7A, I; listed as BSA-AGE
Chain of human tissue-type plasminogen activator finger EGF (tPA F-EGF) fragment (P00750 39-120 limits assumed): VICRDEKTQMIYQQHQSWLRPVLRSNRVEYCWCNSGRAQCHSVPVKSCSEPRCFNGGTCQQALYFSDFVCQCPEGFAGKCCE
Protocol: The plates were blocked using Blocking reagent (Roche 1112589). A dilution series of the protein of interest was applied to the coated proteins and wells were subsequently washed using TBS-T (50 mM Tris pH 7.3, 150 mM NaCl and 0.1% Tween20). Bound protein is detected by the FLAG-tag using 1:3000 anti-FLAG-HRP (Sigma A-8592) in PBS-T, or by 1:1000 Ni-NTA-HRP (Qiagen 34530) in PBS-T. The HRP reaction Is performed using the TMB substrate (Biosource 4501103 or Tebu Bio 101TMB100-500), stopped using 10% H2SO4 and absorbance was measured at 450 nm.

[4] = biological target: T1, LRP cl-IV (Homo sapiens, UniProt Q07954); experiment: ELISA, binding of LRP cluster IV to misfolded proteins; settings: 5 μg/ml coated protein
T1 construct: Cluster IV of the low-density lipoprotein (LDL) receptor-related protein (LRP cl-IV) was cloned from complete cDNA of THP1 cells; made in house; host or cells: HEK293E/S cells; culture supernatant used without purification
T1 sequence (Q07954 3332-3778 limits assumed): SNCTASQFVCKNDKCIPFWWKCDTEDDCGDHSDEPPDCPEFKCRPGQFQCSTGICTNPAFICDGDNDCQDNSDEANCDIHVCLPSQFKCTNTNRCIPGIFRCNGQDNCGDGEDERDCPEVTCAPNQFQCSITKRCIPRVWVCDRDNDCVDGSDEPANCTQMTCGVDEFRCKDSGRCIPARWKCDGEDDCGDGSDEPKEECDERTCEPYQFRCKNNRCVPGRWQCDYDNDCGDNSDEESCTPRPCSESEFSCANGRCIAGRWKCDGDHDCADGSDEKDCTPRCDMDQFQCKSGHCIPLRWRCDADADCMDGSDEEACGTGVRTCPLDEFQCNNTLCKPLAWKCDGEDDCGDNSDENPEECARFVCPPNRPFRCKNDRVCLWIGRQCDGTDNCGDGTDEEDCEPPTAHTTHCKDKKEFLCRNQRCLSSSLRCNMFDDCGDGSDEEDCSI
Protocol: Binding of LRP cl-IV to misfolded protein was determined using an enzyme linked immuno sorbent assay (ELISA) set-up. For this purpose 50 μl of a 5 μg/ml solution of BSA, BSA-AGE, Hb or Hb-AGE or coat buffer (for negative control) was coated for 1 h with motion. Proteins were diluted in coat buffer (100 mM NaHCO3 pH 9.6). The BSA and Hb controls were prepared freshly by dissolving proteins at 1 mg/ml in PBS by rolling for 10 minutes on a roller bank at room temperature, 10 minutes incubation at 37° C. followed by again 10 minutes incubation at the roller bank. Coat controls were performed with anti-glycated protein antibody 4B5, anti-albumin antibody or anti Hb antibody. After coating the plates were washed twice with PBS/0.1% Tween-20 (v/v) and blocked with 300 μl/well blocking reagent (Roche Diagnostics, Almere, The Netherlands) for 1 h at room temperature with motion. […] After five washes with wash buffer binding of antibody was assessed with a secondary antibody. […] After 5 washes with wash buffer, binding of anti-FLAG antibody and secondary antibodies was assessed with 100 μl/well TMB substrate (ready to use from Tebu Bio). […] After ˜2 minutes absorbance was read at 450 nm.

binding of LRP cl-IV [4]	Substance	Fluorescence (a.u. +/− SD) CR [1]	amyloid-like properties after exposure to harsh denaturing conditions (low pH, heat) [2]	binding of tPA F-EGF [3]
	Abciximab: abciximab, an inhibitor of blood platelet aggregation (ReoPro, Centocor)	25 +/− 1 a.u.	amyloid-like properties are adopted	
binds specifically	albumin-AGE: advanced glycation end-product modified bovine serum albumin			High binding affinities; also recorded: high affinity binding
